The record followed here is US20150218594A1, “CELL-FREE AND MINIMIZED METABOLIC REACTION CASCADES FOR THE PRODUCTION OF CHEMICALS” (CLARIANT PRODUKTE (DEUTSCHLAND) GMBH, priority 2012, published 2015).

Common to all, as to format: biochemical
A short description of assay [1]: Cofactor acceptance of Ta-ALDH variants (10 mM NAD). As to conditions: for 10 mM NAD (mU/mL): 1 mM D-glyceraldehyde, 50° C., pH 7; for 10 mM NAD (mU/mL) / relative to wt: 10 mM NAD; for relative to wt: normalized to the wildtype control value; for 10 mM NAD /2 mM NAD: ratio of activity at 10 mM NAD to 2 mM NAD. The method, then: (§1) Colonies of E. coli BL21 (DE3) containing Ta-ALDH library were transferred into 96-deepwell plates (Gainer BioOne) containing Zym5052 autoinduction medium (Protein Expression and Purification, 2005. 41(1): p. 207-234). Cultures were grown over night at 37° C., 1000 rpm. Cells were harvested by centrifugation at 5000 g at 2° C. for 2 min and lysed with B-Per® protein extraction reagent (Thermo Fisher Scentific, Rockford, USA). After incubation for 60 min at 50° C., insoluble cell debris and was removed by centrifugation at 5000 g at 20° C. for 30 min. Supernatants containing variants of TaALDH were tested for relative activity under standard conditions: 2 mM NAD, 1 mM D-glyceraldehyde in 50 mM HEPES (pH 7) at 50° C. After 20 min NADH formation was detected spectrophotometrically at 340 nm.
Change in cofactor acceptance of Ta-ALDH variants was tested under standard assay conditions but with 10 mM NAD. After 20 min NADH formation was detected and compared to relative activity.
(§2) The values “relative to wt” are the mU/mL values normalized to the wildtype control value.

Assay [2] can be described thus: Activity in solvents of Ta-ALDH variants (3 % isobutanol). As to conditions: for 3 % isobutanol, 2 mM NAD (mU/mL): 50° C., pH 7; for 3 % isobutanol, 2 mM NAD (mU/mL) / relative to wt: 3 % isobutanol, 2 mM NAD; for relative to wt: normalized to the wildtype control value; for Stab. rel to wt: stability in 3 % isobutanol relative to wildtype. The method, then: as §1
Activity in solvents of Ta-ALDH variants was tested under standard assay conditions containing additional solvent. After 20 min NADH formation was detected and compared to relative activity.
as §2

The nature of assay [3]: Screening of TaALDH variants, relative activity under standard conditions (2 mM NAD). The settings on record: for 2 mM NAD (mU/mL): 1 mM D-glyceraldehyde, 50° C., pH 7, lysate supernatant; for relative to wt: mU/mL values normalized to the wildtype control value. How it is done: as §1, §2

B1: S405C: optimized Thermoplasma acidophilum aldehyde dehydrogenase with the mutation of S405C (protein)
chain: MDTKLYIDGQWVNSSSGKTVDKYSPVTGQVIGRFEAATRDDVDRAIDAAEDAFWAWNDLGSVERSKIIYRAKELIEKNRAELENIIMEENGKPVKEAKEEVDGVIDQIQYYAEWARKLNGEVVEGTSSHRKIFQYKVPYGIVVALTPWNFPAGMVARKLAPALLTGNTVVLKPSSDTPGSAEWIVRKFVEAGVPKGVLNFITGRGSEIGDYIVEHKKVNLITMTGSTATGQRIMQKASANMAKLILELGGKAPFMVWKDADMDNALKTLLWAKYWNAGQSCIAAERLYVHEDIYDTFMSRFVELSRKLALGDPKNADMGPLINKGALQATSEIVEEAKESGAKILFGGSQPSLSGPYRNGYFFLPTIIGNADQKSKIFQEEIFAPVIGARKISSVEEMYDLANDCKYGLASYLFTKDPNIIFEASERIRFGELYVNMPGPEASQGYHTGFRMTGQAGEGSKYGISEYLKLKNIYVDYSGKPLHINTVRDDLFQSGRPVLGSSHHHHHH
modifications: TaALDH-S405C-Chis
On to B1, for which, in assay [1], the “10 mM NAD (mU/mL)” value stood at 66.82 mU/mL, the relative to wt came to 5.6 and the 10 mM NAD /2 mM NAD was 0.8. Further, in assay [2], the “3 % isobutanol, 2 mM NAD (mU/mL)” value came out at 12.65 mU/mL; the relative to wt stood at 7.9; the “Stab. rel to wt” value is 1.2. Besides, in assay [3], the “2 mM NAD (mU/mL)” value came out at 19.29 mU/mL and the relative to wt worked out at 6.7.

B2: W271S: optimized Thermoplasma acidophilum aldehyde dehydrogenase with the mutation of W271S (protein)
chain: MDTKLYIDGQWVNSSSGKTVDKYSPVTGQVIGRFEAATRDDVDRAIDAAEDAFWAWNDLGSVERSKIIYRAKELIEKNRAELENIIMEENGKPVKEAKEEVDGVIDQIQYYAEWARKLNGEVVEGTSSHRKIFQYKVPYGIVVALTPWNFPAGMVARKLAPALLTGNTVVLKPSSDTPGSAEWIVRKFVEAGVPKGVLNFITGRGSEIGDYIVEHKKVNLITMTGSTATGQRIMQKASANMAKLILELGGKAPFMVWKDADMDNALKTLLSAKYWNAGQSCIAAERLYVHEDIYDTFMSRFVELSRKLALGDPKNADMGPLINKGALQATSEIVEEAKESGAKILFGGSQPSLSGPYRNGYFFLPTIIGNADQKSKIFQEEIFAPVIGARKISSVEEMYDLANDSKYGLASYLFTKDPNIIFEASERIRFGELYVNMPGPEASQGYHTGFRMTGQAGEGSKYGISEYLKLKNIYVDYSGKPLHINTVRDDLFQSGRPVLGSSHHHHHH
modifications: TaALDH-W271S-Chis
With B2, in assay [1], the “10 mM NAD (mU/mL)” value was 181.89 mU/mL, the relative to wt came out at 15.3 and the 10 mM NAD /2 mM NAD turned out to be 0.8. In addition, in assay [2], the “3 % isobutanol, 2 mM NAD (mU/mL)” value turned out to be 20.8 mU/mL; the relative to wt amounted to 13; the “Stab. rel to wt” value is listed as 0.6. Also, in assay [3], the “2 mM NAD (mU/mL)” value was determined as 58.35 mU/mL and the relative to wt is reported as 20.2.

B3: F34M W271S Y399C S405N: optimized Thermoplasma acidophilum aldehyde dehydrogenase with the mutations F34M, W271S, Y399C and S405N (protein)
chain: MDTKLYIDGQWVNSSSGKTVDKYSPVTGQVIGRMEAATRDDVDRAIDAAEDAFWAWNDLGSVERSKIIYRAKELIEKNRAELENIIMEENGKPVKEAKEEVDGVIDQIQYYAEWARKLNGEVVEGTSSHRKIFQYKVPYGIVVALTPWNFPAGMVARKLAPALLTGNTVVLKPSSDTPGSAEWIVRKFVEAGVPKGVLNFITGRGSEIGDYIVEHKKVNLITMTGSTATGQRIMQKASANMAKLILELGGKAPFMVWKDADMDNALKTLLSAKYWNAGQSCIAAERLYVHEDIYDTFMSRFVELSRKLALGDPKNADMGPLINKGALQATSEIVEEAKESGAKILFGGSQPSLSGPYRNGYFFLPTIIGNADQKSKIFQEEIFAPVIGARKISSVEEMCDLANDNKYGLASYLFTKDPNIIFEASERIRFGELYVNMPGPEASQGYHTGFRMTGQAGEGSKYGISEYLKLKNIYVDYSGKPLHINTVRDDLFQSGRPVLGSSHHHHHH
modifications: TaALDH-F34M-W271S-Y399C-S405N-Chis
Consider B3, for which, in assay [1], the “10 mM NAD (mU/mL)” value turned out to be 8.08 mU/mL, the relative to wt worked out at 0.7 and the 10 mM NAD /2 mM NAD amounted to 0.7. Moreover, in assay [2], the “3 % isobutanol, 2 mM NAD (mU/mL)” value came out at 1.3 mU/mL; the relative to wt was found to be 0.8; the “Stab. rel to wt” value came out at 0.8. Further, in assay [3], the “2 mM NAD (mU/mL)” value is reported as 3 mU/mL and the relative to wt came to 1.0.

B4: F34L: optimized Thermoplasma acidophilum aldehyde dehydrogenase with the mutation of F34L (protein)
chain: MDTKLYIDGQWVNSSSGKTVDKYSPVTGQVIGRLEAATRDDVDRAIDAAEDAFWAWNDLGSVERSKIIYRAKELIEKNRAELENIIMEENGKPVKEAKEEVDGVIDQIQYYAEWARKLNGEVVEGTSSHRKIFQYKVPYGIVVALTPWNFPAGMVARKLAPALLTGNTVVLKPSSDTPGSAEWIVRKFVEAGVPKGVLNFITGRGSEIGDYIVEHKKVNLITMTGSTATGQRIMQKASANMAKLILELGGKAPFMVWKDADMDNALKTLLWAKYWNAGQSCIAAERLYVHEDIYDTFMSRFVELSRKLALGDPKNADMGPLINKGALQATSEIVEEAKESGAKILFGGSQPSLSGPYRNGYFFLPTIIGNADQKSKIFQEEIFAPVIGARKISSVEEMYDLANDSKYGLASYLFTKDPNIIFEASERIRFGELYVNMPGPEASQGYHTGFRMTGQAGEGSKYGISEYLKLKNIYVDYSGKPLHINTVRDDLFQSGRPVLGSSHHHHHH
modifications: taALDH-F34L-Chis
As for B4, in assay [1], the “10 mM NAD (mU/mL)” value is reported as 31.72 mU/mL, the relative to wt stood at 2.7 and the 10 mM NAD /2 mM NAD is 0.8. In assay [2], the “3 % isobutanol, 2 mM NAD (mU/mL)” value is recorded as 4.08 mU/mL; the relative to wt is listed as 2.6; the “Stab. rel to wt” value is given as 0.8. Besides, in assay [3], the “2 mM NAD (mU/mL)” value was found to be 9.09 mU/mL and the relative to wt turned out to be 3.1.

B5: Y399R: optimized Thermoplasma acidophilum aldehyde dehydrogenase with the mutation of Y399R (protein)
chain: MDTKLYIDGQWVNSSSGKTVDKYSPVTGQVIGRFEAATRDDVDRAIDAAEDAFWAWNDLGSVERSKIIYRAKELIEKNRAELENIIMEENGKPVKEAKEEVDGVIDQIQYYAEWARKLNGEVVEGTSSHRKIFQYKVPYGIVVALTPWNFPAGMVARKLAPALLTGNTVVLKPSSDTPGSAEWIVRKFVEAGVPKGVLNFITGRGSEIGDYIVEHKKVNLITMTGSTATGQRIMQKASANMAKLILELGGKAPFMVWKDADMDNALKTLLWAKYWNAGQSCIAAERLYVHEDIYDTFMSRFVELSRKLALGDPKNADMGPLINKGALQATSEIVEEAKESGAKILFGGSQPSLSGPYRNGYFFLPTIIGNADQKSKIFQEEIFAPVIGARKISSVEEMRDLANDSKYGLASYLFTKDPNIIFEASERIRFGELYVNMPGPEASQGYHTGFRMTGQAGEGSKYGISEYLKLKNIYVDYSGKPLHINTVRDDLFQSGRPVLGSSHHHHHH
modifications: TaALDH-Y399R-Chis
Consider B5, for which, in assay [1], the “10 mM NAD (mU/mL)” value came out at 11.56 mU/mL, the relative to wt came out at 1.0 and the 10 mM NAD /2 mM NAD was found to be 0.7. Moreover, in assay [2], the “3 % isobutanol, 2 mM NAD (mU/mL)” value came out at 2.16 mU/mL; the relative to wt was found to be 1.4; the “Stab. rel to wt” value is reported as 1. Besides, in assay [3], the “2 mM NAD (mU/mL)” value is 3.76 mU/mL and the relative to wt is recorded as 1.3.

B6: F34M W271S S405N: TaALDH variant with the mutations F34M, W271S and S405N; no SEQ ID printed (protein)
chain: MDTKLYIDGQWVNSSSGKTVDKYSPVTGQVIGRMEAATRDDVDRAIDAAEDAFWAWNDLGSVERSKIIYRAKELIEKNRAELENIIMEENGKPVKEAKEEVDGVIDQIQYYAEWARKLNGEVVEGTSSHRKIFQYKVPYGIVVALTPWNFPAGMVARKLAPALLTGNTVVLKPSSDTPGSAEWIVRKFVEAGVPKGVLNFITGRGSEIGDYIVEHKKVNLITMTGSTATGQRIMQKASANMAKLILELGGKAPFMVWKDADMDNALKTLLSAKYWNAGQSCIAAERLYVHEDIYDTFMSRFVELSRKLALGDPKNADMGPLINKGALQATSEIVEEAKESGAKILFGGSQPSLSGPYRNGYFFLPTIIGNADQKSKIFQEEIFAPVIGARKISSVEEMYDLANDNKYGLASYLFTKDPNIIFEASERIRFGELYVNMPGPEASQGYHTGFRMTGQAGEGSKYGISEYLKLKNIYVDYSGKPLHINTVRDDLFQSGRPVLGSSHHHHHH
Consider B6, for which, in assay [1], the “10 mM NAD (mU/mL)” value is recorded as 279.58 mU/mL, the relative to wt was found to be 23.5 and the 10 mM NAD /2 mM NAD stood at 0.5. In assay [2], the “3 % isobutanol, 2 mM NAD (mU/mL)” value stood at 43.86 mU/mL; the relative to wt is listed as 27.5; the “Stab. rel to wt” value was found to be 0.6. Moreover, in assay [3], the “2 mM NAD (mU/mL)” value is 125.38 mU/mL and the relative to wt was found to be 43.4.
